Assay results: patent EP3912994A1

Columns and labels:
[1] = target: Tenascin-C (TNC), recombinant full length; test: SPR (Biacore 2000), TNC immobilised on CM5 chip, 1:1 Langmuir model
[2] = target: Tenascin-C (TNC) expressed by the NT193M tumor cell (mouse) (UniProt Q80YX1); test: cell-based or functional assay
[3] = target: fibronectin type III domains 1-5 of human tenascin-C (human) (UniProt P24821); test: ELISA, TN1-5 coated, biotinylated FN12-14 titrated 1 nM to 1 µM
Chain of fibronectin type III domains 1-5 of human tenascin-C (human) (P24821 625-1075, form in doubt): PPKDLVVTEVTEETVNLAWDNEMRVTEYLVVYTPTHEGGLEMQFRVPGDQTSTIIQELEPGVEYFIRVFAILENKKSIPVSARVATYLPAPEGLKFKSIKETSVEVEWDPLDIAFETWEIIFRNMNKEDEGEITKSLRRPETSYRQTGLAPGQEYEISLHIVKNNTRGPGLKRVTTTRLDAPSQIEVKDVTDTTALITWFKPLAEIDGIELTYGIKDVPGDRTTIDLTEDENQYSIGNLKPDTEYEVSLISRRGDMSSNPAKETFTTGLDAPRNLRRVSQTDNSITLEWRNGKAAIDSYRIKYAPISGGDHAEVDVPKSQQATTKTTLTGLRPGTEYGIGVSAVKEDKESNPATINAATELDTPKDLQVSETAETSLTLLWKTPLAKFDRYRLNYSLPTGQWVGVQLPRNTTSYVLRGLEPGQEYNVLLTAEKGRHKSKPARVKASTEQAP

Chain of Tenascin-C (TNC) expressed by the NT193M tumor cell (mouse) (Q80YX1 23-2110 limits assumed): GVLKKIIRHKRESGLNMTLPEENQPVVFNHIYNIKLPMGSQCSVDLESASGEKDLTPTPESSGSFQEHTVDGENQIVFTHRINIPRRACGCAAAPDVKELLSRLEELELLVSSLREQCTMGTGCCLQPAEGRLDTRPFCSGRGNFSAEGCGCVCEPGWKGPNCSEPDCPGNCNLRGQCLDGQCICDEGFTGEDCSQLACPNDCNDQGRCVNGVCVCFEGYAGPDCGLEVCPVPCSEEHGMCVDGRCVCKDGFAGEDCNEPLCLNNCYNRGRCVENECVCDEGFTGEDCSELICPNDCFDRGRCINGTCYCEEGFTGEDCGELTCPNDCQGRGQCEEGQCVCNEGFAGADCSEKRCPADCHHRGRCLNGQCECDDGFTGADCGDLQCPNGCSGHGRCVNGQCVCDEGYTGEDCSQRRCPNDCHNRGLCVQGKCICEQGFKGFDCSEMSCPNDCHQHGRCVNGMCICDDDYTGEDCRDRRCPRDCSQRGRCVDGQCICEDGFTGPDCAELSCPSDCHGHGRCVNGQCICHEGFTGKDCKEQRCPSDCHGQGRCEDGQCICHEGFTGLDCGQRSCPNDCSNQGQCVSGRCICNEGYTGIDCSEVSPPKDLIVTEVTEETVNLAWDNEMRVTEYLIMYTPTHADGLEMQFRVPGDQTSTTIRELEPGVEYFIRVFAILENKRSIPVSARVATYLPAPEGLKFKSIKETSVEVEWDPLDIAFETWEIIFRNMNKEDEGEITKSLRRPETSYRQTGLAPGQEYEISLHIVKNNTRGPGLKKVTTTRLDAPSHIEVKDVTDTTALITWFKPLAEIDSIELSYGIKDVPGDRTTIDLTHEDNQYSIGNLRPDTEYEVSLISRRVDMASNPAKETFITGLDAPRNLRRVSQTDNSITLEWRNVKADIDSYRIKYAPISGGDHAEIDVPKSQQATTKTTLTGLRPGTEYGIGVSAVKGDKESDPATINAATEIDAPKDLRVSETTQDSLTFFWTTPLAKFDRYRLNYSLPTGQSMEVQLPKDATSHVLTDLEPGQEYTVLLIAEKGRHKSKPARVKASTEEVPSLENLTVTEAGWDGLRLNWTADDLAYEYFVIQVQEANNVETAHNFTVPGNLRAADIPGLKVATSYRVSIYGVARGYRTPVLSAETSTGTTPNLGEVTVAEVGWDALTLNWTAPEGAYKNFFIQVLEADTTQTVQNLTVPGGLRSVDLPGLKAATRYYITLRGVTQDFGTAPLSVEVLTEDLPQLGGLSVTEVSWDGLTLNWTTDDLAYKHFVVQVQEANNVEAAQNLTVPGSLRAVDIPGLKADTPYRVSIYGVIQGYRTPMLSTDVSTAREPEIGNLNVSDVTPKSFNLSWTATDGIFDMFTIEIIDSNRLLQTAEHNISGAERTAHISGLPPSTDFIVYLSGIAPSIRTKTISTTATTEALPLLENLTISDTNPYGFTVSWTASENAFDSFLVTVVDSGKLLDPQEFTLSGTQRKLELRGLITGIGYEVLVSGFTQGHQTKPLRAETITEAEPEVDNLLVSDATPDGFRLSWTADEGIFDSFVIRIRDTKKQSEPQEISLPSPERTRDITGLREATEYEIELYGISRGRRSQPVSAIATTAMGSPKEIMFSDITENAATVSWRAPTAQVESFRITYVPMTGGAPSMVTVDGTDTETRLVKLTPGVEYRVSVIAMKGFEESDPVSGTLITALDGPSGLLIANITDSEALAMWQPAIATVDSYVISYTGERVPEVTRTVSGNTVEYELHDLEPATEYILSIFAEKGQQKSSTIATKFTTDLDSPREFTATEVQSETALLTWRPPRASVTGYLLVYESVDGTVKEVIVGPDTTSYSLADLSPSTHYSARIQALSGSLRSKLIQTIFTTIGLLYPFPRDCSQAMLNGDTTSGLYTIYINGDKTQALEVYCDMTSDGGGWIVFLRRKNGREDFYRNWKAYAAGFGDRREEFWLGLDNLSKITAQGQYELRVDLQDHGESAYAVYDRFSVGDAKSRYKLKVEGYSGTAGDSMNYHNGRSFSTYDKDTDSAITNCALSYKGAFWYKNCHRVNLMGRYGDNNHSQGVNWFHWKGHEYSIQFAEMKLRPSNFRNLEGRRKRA

**Q.** How did the Kd [1] turn out when “CCL21 (R&D Systems 457-6C) (from UniProt P84444 24-133) (ligand)” was run?
**A.** 58 nM

**Q.** How did the Kd [1] turn out when “CXCL12 (R&D Systems 460-SD-050) (from UniProt P40224 22-89) (ligand)” was run?
**A.** 790 nM

**Q.** With “Mouse recombinant SU… (Enzo Lifesciences ALX-201-130-C020) (from UniProt P50592 99-291) (ligand)” as the substance, how does the TRAIL-induced killing of NT193M cells [2] read?
**A.** 5%

**Q.** What about the Kd [1] of the same substance?
**A.** 2.8 nM

**Q.** How did the Kd [3] turn out when “fibronectin type III domains 12-14 of human fibronectin (double Strep-tagged) (from UniProt P02751 1635-1908)” was run?
**A.** 52 nM
